# According to the supplement of paper PMC10567573:
# ± gives the standard deviation.
# Experiment: protein stability index of a GFP-peptide fusion (GPS, HEK-293T) (PSI 1-6); higher = more stable
# [1] = treatment: DMSO, c terminus: native
# [2] = treatment: MLN4924 1 uM, 8 h, c terminus: native
# [3] = treatment: DMSO, c terminus: a fixed tail appended
# [4] = treatment: MLN4924 1 uM, 8 h, c terminus: a fixed tail appended
# 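Further: 24-mer peptide tiles fused after GFP, lentivirally expressed, FACS-sorted into six equal bins by GFP/DsRed ratio, decoded by Illumina sequencing, PSI is the read-weighted mean bin number.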
Sequence,protein stability index [1],protein stability index [2],protein stability index [3],protein stability index [4]
ASVPKVETVKSDNKDDDIDIDAI [EIF5],5.59 ± 0.17,5.53 ± 0.22,,
AYNHRTDLFKSFPGPMDWVPRYTG [ADAMTS4],,,2.89 ± 0.14,2.82 ± 0.11
KYDPKTQEWSFLPSITRKRRYVAS [KLHL12],,,3.15 ± 0.4,2.93 ± 0.27
FKDLNESLNALEDQDLDALMADLV [APBB1IP],,,3.19 ± 0.26,3.52 ± 0.26
ASLENSLEETKGRYCMQLSQIQGL [KRT16],,,3.3 ± 0.39,3.17 ± 0.25
PGGAPRVASRNLFPKDTLMNLHVY [CLPTM1],,,2.33 ± 0.24,2.29 ± 0.058
NFSQPVAGRPSLLRHDEVRTYFHE [NLN],,,3.36 ± 0.61,3.33 ± 0.31
EECKDRERPMYGRDSAYQSITHYR [EMD],,,4.18 ± 0.43,4.13 ± 0.14
PAPLCGGPSAEAYLLHPAAFHGAP [TBX6],,,2.82 ± 0.34,2.95 ± 0.27
LNMRSTYAKLAAVAVFFIMLIVYV [SEC22B],,,3.14 ± 0.36,3.19 ± 0.23
AKVGPGLPDGCQPLQLLREMRQAL [CBY2],,,2.73 ± 0.57,2.82 ± 0.33
QERQGPAKPEVLSIQWPGKRSSRR [NECAB1],,,4.88 ± 0.21,4.93 ± 0.13
FDALDDYEHHYHTLHGNVCSFCKR [ZNF511],,,3.83 ± 0.33,4.19 ± 0.41
PEHRAFGSPFGLEEPQWVPDKECR [ZFYVE21],,,4.57 ± 0.15,4.62 ± 0.28
QCRDLVDEAKKFHLRPELRSQMQG [KLHL12],,,3.38 ± 0.18,3.53 ± 0.13
TGEKPYQCNICGKCFSCNSNLHRH [ZNF263],,,4.03 ± 0.2,4.52 ± 0.26
GGAGSGFGGGYGGGLGGGYGGGLG [KRT13],,,3.35 ± 0.2,2.85 ± 0.2
GAAVVRPPGHHAEQDAACGFCFFN [HDAC6],,,3.14 ± 0.36,3.26 ± 0.25
IVIWGVLTQKKPFADEKNILHIMV [RIPK4],,,3.25 ± 0.88,2.92 ± 0.67
SVGSYLDTLADDVPGHQTPSDLDQ [LURAP1L],,,5.28 ± 0.23,5.34 ± 0.24
LSRCEFQRAKCKDPQLEIAYRGNC [SMOC2],,,3.23 ± 0.42,3.14 ± 0.23
RELRKPEEPENGEPTAAATARRSK [PWWP2B],,,5.54 ± 0.16,5.51 ± 0.35
EFDSEHNLTSNEGHSLKNLEHRLN [RASAL3],,,4.82 ± 0.49,4.67 ± 0.49

Sequence,protein stability index [1],protein stability index [2],protein stability index [3],protein stability index [4]
RKVVQSLEQTAREILTLLQGVHQG [TSN],,,2.34 ± 0.31,2.81 ± 0.53
VIAKWDYTAQQDQELDIKKNERLW [NCK2],,,3.28 ± 0.093,3.4 ± 0.32
EGARAAGLGELGAALLQLVRRLQA [ESRRA],,,3.04 ± 0.44,3 ± 0.18
SIGLRDYAGNLHESGVHGALLALD [PPFIA4],,,3.48 ± 0.11,3.73 ± 0.45
EVHERNDGIDPFPLLMNRQRVPKV [EFHC1],,,3.67 ± 0.31,3.64 ± 0.3
DFLAEKESLTEDEATQFLKQILDG [DAPK3],,,4.4 ± 0.55,
LNKKLKSYSLSRKKIVHYTCFDQR [CDC14A],,,2.39 ± 0.26,2.35 ± 0.3
SLVRDTIARVHGTFGAAACSIGFA [POP5],,,2.31 ± 0.38,2.48 ± 0.22
TVAASDPDTGDNARLTYSIVGNQV [PCDHGC5],,,4.36 ± 0.26,4.31 ± 0.18
MIVDLLSEKKTISFQGCMAQLFMD [OR4A15],,,2.74 ± 0.52,2.42 ± 0.46
CRDLVDEAKNYLLLPQERPLMQGP [KLHL20],,,2.65 ± 0.33,2.75 ± 0.12
VGRLYAVYDQAVSIFYDLPQGSGF [SMAD6],,,2.54 ± 0.47,2.39 ± 0.65
HSIIISLVEAGAHTDMTNKQNKTP [FEM1B],,,2.46 ± 0.49,2.63 ± 0.32
PFFFTGAFPFNMQELVLKVRIQNP [ANKRD40],,,2.27 ± 0.042,1.99 ± 0.61
WCLRVNPKGLDDESKDYLSLYLLL [SPOPL],,,2.96 ± 0.41,3.08 ± 0.69
GSVPLPESTRELGELLGEARYYLV [KCTD13],,,2.11 ± 0.36,2.35 ± 0.32
ILLVGYPPFWDEDQHRLYKQIKAG [CAMK2A],,,2.29 ± 0.32,2.24 ± 0.19
EQQTMDNLEKQLICPICLEMFTKP [TRIM55],,,3.77 ± 0.38,4.14 ± 0.38
EDAVASADFSSMLSEEEKEELKAE [TPD52L1],,,5.59 ± 0.3,5.54 ± 0.63
GHLEIVKYLVEHKADLEVSNRHGH [FEM1C],,,2.7 ± 0.45,2.94 ± 0.26
LAVLDWNQRAMDLYKALGAQDLTE [SAT2],,,2.41 ± 0.24,2.42 ± 0.19
VLMAVSVHSERKLLPLVTLCDGNP [SCNN1D],,,2.4 ± 0.38,2.32 ± 0.47
ILNSVEKYDPHTGHWTNVTPMATK [KLHL12],,,3.15 ± 0.29,3.43 ± 0.44

Sequence,protein stability index [1],protein stability index [2],protein stability index [3],protein stability index [4]
PEQGVPKSGEGFIDFIGQVHKTKE [PTPRD],,,4.6 ± 0.44,5.17 ± 0.5
YALDMQQSNLEPLSPMTASSFLSF [FEM1A],,,2.6 ± 0.23,2.47 ± 0.085
GVSPADMYRWKLSSHEPCSATCTT [ADAMTSL2],,,2.98 ± 0.33,3.37 ± 0.63
ASSGGAGAAVGTGSSYPTTTISYL [JUNB],,,2.8 ± 0.34,2.79 ± 0.39
LFQILSERQDMYQCLVEGCTEKFK [ZNF511],,,2.24 ± 0.35,2.54 ± 0.6
YQDMIYAVGGRDDTTELSSAERYN [KLHL20],,,2.91 ± 0.66,3.52 ± 0.51
RRRPRQKEAGLSQSHDDLSNATAT [C2CD2L],,,5.23 ± 0.19,5.26 ± 0.24
PQALATRALPCPAHVVFRYQGVRM [FCHSD1],,,2.69 ± 0.2,2.69 ± 0.22
RVEVLTDAGGWVLIDRSGRHFGTI [KCTD13],,,2.37 ± 0.46,2.38 ± 0.7
EIAQYLLEKGADVNRKSVKGNTAL [FEM1C],,,2.58 ± 0.35,2.64 ± 0.3
AAAYSPSEALLYALVHDHQAYAHY [ANKRD9],,,2.05 ± 0.14,2.27 ± 0.28
VQHERIHTGDKPYKCAECGKSFCH [ZNF8],,,4.54 ± 0.33,4.68 ± 0.16
SWSALWNITDETPDNCEMFLNFNG [ZER1],,,2.61 ± 0.25,2.79 ± 0.23
LFLRCSLRHKDEEEEDDDDIHITA [DRICH1],,,3.03 ± 0.35,3.23 ± 0.28
SGRTQAQTRRASALIDRPAPYFER [EPB41L3],,,3.5 ± 0.56,3.72 ± 0.36
RQAELAIERCIFPERIYQGSSGSY [PI4K2A],,,2.72 ± 0.39,2.82 ± 0.28
QQLEEELLRAKIEVEKLKAIRLRH [RAD54B],,,5.32 ± 0.25,5.43 ± 0.27
LLKRMESLKLKSSHHSKHKAPSKL [DLC1],,,3.03 ± 0.36,3.1 ± 0.51
YENFLEDKALMIAMEYAPGGTLAE [NEK8],,,3.54 ± 0.13,3.98 ± 0.2
ARRRVCHTEDFQKEEGTVNGASWH [CPXM2],,,4.57 ± 0.16,4.71 ± 0.84
NLSLVCLPRSEDDDCDDDDDDAQI [DRICH1],,,5.42 ± 0.28,5.5 ± 0.26
AWIWHDCHRHYHSMEVFTHYDLLN [LOXL2],,,2.41 ± 0.14,3 ± 1.2
LSFYDAERHCHLYTFHARFGEVRP [TRIM35],,,2.34 ± 0.54,2.3 ± 0.55

Sequence,protein stability index [1],protein stability index [2],protein stability index [3],protein stability index [4]
KSVQGTGLAFIAFTEAMTHFPASP [SLC6A17],,,2.19 ± 0.49,2.22 ± 0.12
CGNIKAPSLQAWNDAPCDKTFLFI [CD207],,,2.72 ± 0.41,2.49 ± 0.55
TILDIFRFALRFIRPDPRSRVTDP [FAF2],,,2.75 ± 0.48,2.75 ± 0.099
HTETKTITYESSQVDPGTDLEPGV [EPB41L3],,,5.48 ± 0.17,5.37 ± 0.25
EYTCDVEKRSRGQVLFDKVCEHLN [EPB41L3],,,2.16 ± 0.32,2.05 ± 0.61
VPRAGPLTVNTEAQQLLREFEEAT [FOXJ1],,,4.96 ± 0.19,4.9 ± 0.26
GIAQVKIQGQNKEMLAAACQMFLG [FLOT1],,,2.34 ± 0.12,2.69 ± 0.1
SKAKKLVCNINKGCGYGCQLHHVV [FUT8],,,2.71 ± 0.43,2.19 ± 0.4
PLTRLGQLKACTNFDDILNVCDDY [KCNG1],,,3.18 ± 0.29,3.34 ± 0.23
QLDGLGFLYVTGHIKEILITAGGE [ACSBG2],,,2.66 ± 0.54,2.44 ± 0.64
VGRGEVVTVRVPTHEEGSYLFWEF [ACBD3],,,2.64 ± 0.44,2.34 ± 0.26
YLGSLQYRVWKKMLASVESVPFSF [TRIM35],,,2.93 ± 0.63,2.33 ± 0.48
LINTSDTVQHGAVYSLEPRLCGGK [SDE2],,,3.97 ± 0.43,3.97 ± 0.33
TAYWALAGSIGGLFFAVGIAQYAL [SLC22A15],,,3.06 ± 0.15,2.89 ± 0.18
QADTVHSNPELDVLLLGSVDGRHL [DNAAF3],,,3.77 ± 0.4,4 ± 0.3
SVYAWGGGLGTPLRLPMLNTEVVQ [NEK8],,,2.63 ± 0.39,2.69 ± 0.32
STQTKKLSASSPRMLHRSTQTTND [ZMYND11],,,4.71 ± 0.54,5.15 ± 0.17
TEGNPRWEQTHLTYRIENYTPDLP [MMP1],,,3.37 ± 0.099,3.51 ± 0.35
LVENAKNFPQCVLEISDQEVLEWY [EFHC1],,,2.96 ± 0.23,2.87 ± 0.23
TTDDTTAMASASSSATGSFSYPE [MAGEA10],5.28 ± 0.14,5.4 ± 0.066,,
